Laboratory results: patent publication US10023909
Like-named read-outs stand apart in the source and are kept apart here.

Target: DNMT1 (Mus musculus) (UniProt P13864)
Conditions: 5mC and 5hmC on top strand only, SAM, 37 C, 4 h

UniProt P13864, sequence (P13864 other isoform, or with tags, fused parts or gaps): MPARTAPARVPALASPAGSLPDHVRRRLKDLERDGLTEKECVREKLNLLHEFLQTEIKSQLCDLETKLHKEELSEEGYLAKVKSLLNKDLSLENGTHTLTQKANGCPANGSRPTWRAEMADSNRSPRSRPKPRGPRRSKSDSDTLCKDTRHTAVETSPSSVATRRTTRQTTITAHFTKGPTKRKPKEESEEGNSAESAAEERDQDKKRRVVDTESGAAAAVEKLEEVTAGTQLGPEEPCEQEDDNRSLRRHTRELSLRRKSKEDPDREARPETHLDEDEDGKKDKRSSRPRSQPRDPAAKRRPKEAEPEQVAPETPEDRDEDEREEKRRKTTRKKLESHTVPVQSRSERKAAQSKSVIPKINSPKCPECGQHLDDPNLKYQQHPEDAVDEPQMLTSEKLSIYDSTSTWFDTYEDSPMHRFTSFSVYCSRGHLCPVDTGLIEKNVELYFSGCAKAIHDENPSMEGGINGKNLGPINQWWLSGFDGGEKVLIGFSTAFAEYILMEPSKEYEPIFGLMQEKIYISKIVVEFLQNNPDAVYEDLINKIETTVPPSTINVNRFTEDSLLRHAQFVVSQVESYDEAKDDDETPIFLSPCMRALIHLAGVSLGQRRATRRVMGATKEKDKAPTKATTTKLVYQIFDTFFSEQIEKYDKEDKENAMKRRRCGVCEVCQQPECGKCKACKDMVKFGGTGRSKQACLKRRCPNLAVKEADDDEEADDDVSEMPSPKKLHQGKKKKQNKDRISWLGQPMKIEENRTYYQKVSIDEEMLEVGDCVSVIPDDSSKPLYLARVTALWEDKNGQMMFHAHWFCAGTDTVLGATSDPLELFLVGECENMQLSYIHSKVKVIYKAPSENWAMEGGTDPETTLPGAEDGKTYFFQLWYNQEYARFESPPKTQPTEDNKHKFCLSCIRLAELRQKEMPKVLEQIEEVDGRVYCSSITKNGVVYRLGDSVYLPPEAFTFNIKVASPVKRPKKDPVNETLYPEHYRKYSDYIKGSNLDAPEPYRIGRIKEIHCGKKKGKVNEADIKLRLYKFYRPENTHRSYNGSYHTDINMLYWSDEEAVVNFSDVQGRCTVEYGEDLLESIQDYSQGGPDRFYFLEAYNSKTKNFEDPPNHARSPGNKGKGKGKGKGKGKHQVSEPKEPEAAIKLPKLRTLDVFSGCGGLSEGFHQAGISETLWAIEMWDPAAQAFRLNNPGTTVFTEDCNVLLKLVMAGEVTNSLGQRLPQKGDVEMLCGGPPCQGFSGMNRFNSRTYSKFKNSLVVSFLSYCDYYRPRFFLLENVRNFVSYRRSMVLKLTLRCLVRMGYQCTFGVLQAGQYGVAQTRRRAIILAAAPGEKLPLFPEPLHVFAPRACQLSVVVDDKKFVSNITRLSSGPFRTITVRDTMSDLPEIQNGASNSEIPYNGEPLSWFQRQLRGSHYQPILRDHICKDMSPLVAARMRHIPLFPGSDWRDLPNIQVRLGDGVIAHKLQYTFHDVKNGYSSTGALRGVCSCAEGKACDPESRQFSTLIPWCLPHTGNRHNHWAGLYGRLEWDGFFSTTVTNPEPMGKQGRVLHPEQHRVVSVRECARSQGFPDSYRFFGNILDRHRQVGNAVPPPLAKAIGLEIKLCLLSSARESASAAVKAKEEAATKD

112 bp 5hmC:C:5meC top/unmodified bottom duplex, hemi-5hmC CpG site
activity (no methylation across from 5hmC): 0%

112 bp 5hmC:C:5meC top/unmodified bottom duplex, hemi-5meC CpG site
activity (methylation by bisulfite sequencing (14 of 16 clones)): 87.5%

112 bp 5hmC:C:5meC top/unmodified bottom duplex, unmodified CpG site
activity (no methylation by bisulfite sequencing): 0%
